Experimental data: paper PMC10704370

Molecular target: YmgB (purified, biotinylated) (Escherichia coli) (UniProt P75993)
Assay: BLI; biotinylated YmgB or YmgB^R74G immobilised on streptavidin biosensors, SpoT^TGS-Helical 2-50 μM as analyte; Blitz, 25 °C; 50 mM Tris-HCl pH 8.0, 500 mM NaCl, 500 mM KCl, 2 mM β-mercaptoethanol, 2% glycerol, BSA 1 mg/ml; KD from steady-state responses, one site model

Chain of UniProt P75993 (P75993 whole entry): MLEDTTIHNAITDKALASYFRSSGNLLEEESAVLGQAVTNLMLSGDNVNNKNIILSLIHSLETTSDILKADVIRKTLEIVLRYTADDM

SpoT^TGS-Helical (purified) (domain or fragment)
Kd: 8.73 µM
